According to article PMC5908803, “Cryo-EM structure of the RC-LH core complex from an early branching photosynthetic prokaryote” (Nature Communications, 2018):

Biological target: the molecule itself
Experiment: cryo-EM structure; single-particle cryo-EM of the rcRC-LH complex purified whole from native membranes, 3 mg/mL in 0.02% DDM, 150 mM NaCl, 50 mM Tris-HCl pH 8.0; 4.1 Å (subunit X helix seen after low-pass filter to 6 Å)

B1: LHαβ heterodimer of Roseiflexus castenholzii (complex)
chain 1: MKDRPFEFRTSVVVSTLLGLVMALLIHFVVLSSGAFNWLRAP
chain 2: MTDKPQNDLVPDQWKPLFNNAQWLVHDIVVKTIYGGLIIAVIAHVLCWAWTPWIR
notes: α subunit of the LH antenna, Roseiflexus castenholzii, encoded by puf A; β subunit of the LH antenna, Roseiflexus castenholzii, encoded by puf B; Each heterodimer holds two B880, one B800 and one keto-γ-carotene; 15 of them form the open elliptical LH ring; also called LHαβ subunit
With B1 the “stoichiometry N” value was 15.
